Data: patent US20090062190A1 (published 2009)

Molecular target: LITAF (LPS-induced TNF-α factor), full length
Experiment: cell-based or functional assay

Sequence of LITAF (LPS-induced TNF-α factor), full length (chain, as listed by the source limits assumed): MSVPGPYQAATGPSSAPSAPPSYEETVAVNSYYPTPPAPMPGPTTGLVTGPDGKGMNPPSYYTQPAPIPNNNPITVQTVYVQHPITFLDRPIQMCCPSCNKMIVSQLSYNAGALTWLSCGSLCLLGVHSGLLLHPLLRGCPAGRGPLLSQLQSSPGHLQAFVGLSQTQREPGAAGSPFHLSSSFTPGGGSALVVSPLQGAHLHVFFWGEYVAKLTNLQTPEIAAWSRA

B1: STAT6(B) (Signal transducer and activator of transcription), full length, aa 1-404 (other)
chain: MARRNPSPPLQRLRDWGHHHCPCHPGPGWLSTDGEHPAILCQRPVHSLTGGPNPGSCSAQKSLSQEAQGGGFPEPLQAWAGTGCSDSFLSPTSSLLPAALLSLPVCHPDVTPYFIAVLLLLPHDPCPPFPPPFLPNPRALHGCLFLLTTAEQMGKDGRGYVPATIKMTVERGVWWYGQWVGQGLVVLICRKEGWHQPLVSHMYLLPSSRDQPLPTPELQMPTMVPSYDLGMAPDSSMSMQLGPDMVPQVYPPHSHSIPPYQGLSPEESVNVLSAFQEPHLQMPPSLGQMSLSFDQPHPQGLLPCQPQEHAVSSPDPLLCSDVTTVEDSCLSQPVTAFPQGTWIGEDIFPPLLPPTEQDLTKLLLEGQGESGGGSLGAQPLLQPSHYGQSGISMSHMDLRANPSW
TNF-promoter activity (luciferase), U2OS cells, co-transfection versus LITAF alone: 1.5 fold | TNF-α in supernatants of transfected THP-1 cells (ELISA), versus LITAF alone: 1.8 fold | cytokine antibody array, 'W-10' (probably IL-10), THP-1 cells co-transfected with LITAF and STAT6(B): 10 fold | cytokine antibody array, GRO, THP-1 cells co-transfected with LITAF and STAT6(B): 2.1 fold | cytokine antibody array, IFN-γ, THP-1 cells co-transfected with LITAF and STAT6(B): 6.2 fold | cytokine antibody array, IL-1α, THP-1 cells co-transfected with LITAF and STAT6(B): 3 fold | cytokine antibody array, MCP-2, THP-1 cells co-transfected with LITAF and STAT6(B): 8.5 fold | cytokine antibody array, RANTES, THP-1 cells co-transfected with LITAF and STAT6(B): 3.2 fold | cytokine antibody array, TNF-α, THP-1 cells co-transfected with LITAF and STAT6(B): 4 fold
